Measured values taken from article PMC9097876 (Science Immunology, 2022).

Target: T1, SARS-CoV-2 spike receptor-binding domain (RBD), original Wuhan isolate (SARS-CoV-2, Wuhan isolate, UniProt P0DTC2)
T1 construct: not shown: His tag, C-terminal, kept
Test: BLI
Settings: both partners purified

B1: G32Q4 Fab (Fab, V domains shown)
VH: QVQLVESGGGVVQPGRSLRLSCAASGFTFSRYAMQWVRQAPGKGLEWVAVISYDGNNRYYADSVKGRFTISRDNSKNTLYLQMNSLRAEDTAVYYCARGPPGYYDSSGYYQTPEYFQHWGQGTLVTVSS
VL: QSVLTQPPSVSGAPGQRVTISCTGSSSNIGVGYDVHWYQQFPGTVPKLLIYGNSNRPSGVPDRFSGSKSGTSASLAITGLQAEDEADYYCQSYDSSLSGVVFGGGTKLTVL
koff: 0.0066 s⁻¹
kon: 1.2e+06 M⁻¹ s⁻¹
